Experimental findings from article PMC7409537, “CYP20-3 deglutathionylates 2-CysPRX A and suppresses peroxide detoxification during heat stress” (Life Science Alliance, 2020) are described below.

Data set [1] addresses Cys to Ser mutant 2CPB C53S/C175S, tag-free (Arabidopsis thaliana). The experiment in a line: nonreducing SDS/PAGE (redox shift visualization); 1 μM (Fig 1) or 1.5 μM (Fig S2) recombinant 2CP incubated with/without 1 mM GSH (50 mM Tris-HCl pH 7.5, 25°C, 30 min), nonreducing SDS/PAGE, Coomassie stain (anti-GSH Western blot in Fig S2); oligomer size read from gel mobility; self-association. In general terms: A western blot detects proteins with antibodies after separation by electrophoresis.

Data set [2] concerns the molecule itself. The experiment in a line: nonreducing SDS/PAGE with Western blot of plant extracts; total leaf protein extracts of Arabidopsis (WT Col-0, 2cpa, 2cpb, cyp20-3; untreated or 0, 3, 6 h post wounding), nonreducing SDS/PAGE, Western blot with anti-2CPA or anti-GSH antibody; oligomer size read from gel mobility.
Data set [3] concerns the molecule itself. The experiment in a line: nonreducing SDS/PAGE (redox shift visualization); 1 μM (Fig 1) or 1.5 μM (Fig S2) recombinant 2CP incubated with/without 1 mM GSH (50 mM Tris-HCl pH 7.5, 25°C, 30 min), nonreducing SDS/PAGE, Coomassie stain (anti-GSH Western blot in Fig S2); oligomer size read from gel mobility; self-association.
Data set [4] concerns the molecule itself. The experiment in a line: nonreducing SDS/PAGE (redox shift visualization); 1 μM tag-free 2CP incubated with 1 mM GSH and 0.1% (vol/vol) Triton X-100 (partial denaturation), nonreducing SDS/PAGE, Coomassie stain; self-association.
Data set [5] deals with the molecule itself. As to the kind of experiment: nonreducing SDS/PAGE (redox shift visualization); 1.5 μM 2CP^GS incubated with CYP20-3 (0-5 μM) at 42°C for 15 min, nonreducing SDS/PAGE, Coomassie stain and anti-GSH Western blot; self-association of the 2CP after the treatment.

Several values for one entry are separate records, joined by “and”; a condition that tells them apart may be missing. Equal values may be shown once.

On to “Cys to Ser mutant 2CPB C53S/C175S, tag-free (enzyme)”, for which, in data set [1], the stoichiometry N (as a rule, the number of molecules, sites or subunits per partner or assembly) stood at 10.

B1: endogenous GSH-glutathionylated 2CPA (2CPA^GS) in Arabidopsis leaf extracts (enzyme, UniProt Q96291 66-266, looked up)
chain: KAQADDLPLVGNKAPDFEAEAVFDQEFIKVKLSDYIGKKYVILFFYPLDFTFVCPTEITAFSDRHSEFEKLNTEVLGVSVDSVFSHLAWVQTDRKSGGLGDLNYPLISDVTKSISKSFGVLIHDQGIALRGLFIIDKEGVIQHSTINNLGIGRSVDETMRTLQALQYIQENPDEVCPAGWKPGEKSMKPDPKLSKEYFSAI
modifications: S-glutathionylated (as the paper names it: 2CPA^GS)
notes: 2-Cys peroxiredoxin A (2CPA), Arabidopsis thaliana, At3g11630, endogenous plastid protein; Bands in WT extracts detected with 2CP antibody and put down to 2CPA^GS by the authors; source: endogenous, Arabidopsis (Col-0) leaf total protein extract
Regarding B1, the “stoichiometry N” value in data set [2] worked out at 2.

B2: His-tagged GSH-glutathionylated 2-Cys peroxiredoxin B (His-tagged 2CPB^GS) (enzyme, Arabidopsis thaliana, UniProt Q9C5R8 73-273, looked up)
chain: KAQADDLPLVGNKAPDFEAEAVFDQEFIKVKLSEYIGKKYVILFFYPLDFTFVCPTEITAFSDRYEEFEKLNTEVLGVSVDSVFSHLAWVQTDRKSGGLGDLNYPLVSDITKSISKSFGVLIPDQGIALRGLFIIDKEGVIQHSTINNLGIGRSVDETMRTLQALQYVQENPDEVCPAGWKPGEKSMKPDPKLSKEYFSAI
modifications: S-glutathionylated by GSH (mixed disulfide GS-S on a Cys)
notes: C53 is C126 and C175 is C248 in Q9C5R8; Tagged version cloned BamHI/HindIII into pET28a; source: E. coli BL21 (DE3), purified (Ni-NTA), incubated with GSH
Consider B2, for which, in data set [3], the “stoichiometry N” value was 20 and 10.

B3: GSH-glutathionylated 2-Cys peroxiredoxin A (2CPA^GS), tag-free recombinant (enzyme, Arabidopsis thaliana)
chain: GSHMKAQADDLPLVGNKAPDFEAEAVFDQEFIKVKLSDYIGKKYVILFFYPLDFTFVCPTEITAFSDRHSEFEKLNTEVLGVSVDSVFSHLAWVQTDRKSGGLGDLNYPLISDVTKSISKSFGVLIHDQGIALRGLFIIDKEGVIQHSTINNLGIGRSVDETMRTLQALQYIQENPDEVCPAGWKPGEKSMKPDPKLSKEYFSAI
modifications: S-glutathionylated by GSH (mixed disulfide GS-S on a Cys; the discussion names the resolving Cys, CR^53)
notes: four nonnative residues (Gly, Ser, His, Met) left at the N terminus after thrombin removal of the His-tag; C53 is C119 and C175 is C241 in Q96291; source: E. coli BL21 (DE3), purified (Ni-NTA), His-tag removed with thrombin, incubated with GSH; not shown: His-tag, N-terminal, cleaved
Take B3: the entries for the “stoichiometry N” value in data set [3] and in data set [4] were 2 and 10, respectively.

B4: 2-Cys peroxiredoxin A (2CPA), tag-free recombinant, not glutathionylated (enzyme, Arabidopsis thaliana)
chain: GSHMKAQADDLPLVGNKAPDFEAEAVFDQEFIKVKLSDYIGKKYVILFFYPLDFTFVCPTEITAFSDRHSEFEKLNTEVLGVSVDSVFSHLAWVQTDRKSGGLGDLNYPLISDVTKSISKSFGVLIHDQGIALRGLFIIDKEGVIQHSTINNLGIGRSVDETMRTLQALQYIQENPDEVCPAGWKPGEKSMKPDPKLSKEYFSAI
notes: four nonnative residues (Gly, Ser, His, Met) left at the N terminus after thrombin removal of the His-tag; C53 is C119 and C175 is C241 in Q96291; also called 2-CysPRX A; 2CP isoform A; source: E. coli BL21 (DE3), purified (Ni-NTA), His-tag removed with thrombin; not shown: His-tag, N-terminal, cleaved
On to B4, for which, in data set [5], the “stoichiometry N” value was 2.

B5: GSH-glutathionylated 2-Cys peroxiredoxin B (2CPB^GS), tag-free recombinant (enzyme, Arabidopsis thaliana)
chain: GSHMKAQADDLPLVGNKAPDFEAEAVFDQEFIKVKLSEYIGKKYVILFFYPLDFTFVCPTEITAFSDRYEEFEKLNTEVLGVSVDSVFSHLAWVQTDRKSGGLGDLNYPLVSDITKSISKSFGVLIPDQGIALRGLFIIDKEGVIQHSTINNLGIGRSVDETMRTLQALQYVQENPDEVCPAGWKPGEKSMKPDPKLSKEYFSAI
modifications: S-glutathionylated by GSH (mixed disulfide GS-S on a Cys)
notes: four nonnative residues (Gly, Ser, His, Met) left at the N terminus after thrombin removal of the His-tag; C53 is C126 and C175 is C248 in Q9C5R8; source: E. coli BL21 (DE3), purified (Ni-NTA), His-tag removed with thrombin, incubated with GSH; not shown: His-tag, N-terminal, cleaved
B5: the figures for the “stoichiometry N” value in data set [3] and in data set [5] were 20 and 10, respectively.

B6: 2-Cys peroxiredoxin B (2CPB), tag-free recombinant, not glutathionylated (enzyme, Arabidopsis thaliana)
chain: GSHMKAQADDLPLVGNKAPDFEAEAVFDQEFIKVKLSEYIGKKYVILFFYPLDFTFVCPTEITAFSDRYEEFEKLNTEVLGVSVDSVFSHLAWVQTDRKSGGLGDLNYPLVSDITKSISKSFGVLIPDQGIALRGLFIIDKEGVIQHSTINNLGIGRSVDETMRTLQALQYVQENPDEVCPAGWKPGEKSMKPDPKLSKEYFSAI
notes: four nonnative residues (Gly, Ser, His, Met) left at the N terminus after thrombin removal of the His-tag; C53 is C126 and C175 is C248 in Q9C5R8; also called 2-CysPRX B; 2CP isoform B; source: E. coli BL21 (DE3), purified (Ni-NTA), His-tag removed with thrombin; not shown: His-tag, N-terminal, cleaved
Turning to B6, the “stoichiometry N” value in data set [3] was 10 and 20.
